From patent US20260125477A1

Tests used:
[1] = target: human B7-H3 on B7-H3+ cells (human) (UniProt Q5ZPR3); test: FACS, HepG2 cells (B7-H3+ tumor cells)
[2] = target: human B7-H3 on B7-H3+ cells (human) (UniProt Q5ZPR3); test: FACS, mature human dendritic cells derived from PBMC (B7-H3+ normal cells)
[3] = target: human B7-H3 on B7-H3+ cells (human) (UniProt Q5ZPR3); test: FACS, HUVEC cells (human B7-H3-expressing)
[4] = target: human B7-H3 on B7-H3+ cells (human) (UniProt Q5ZPR3); test: FACS, SK-OV-3 cells (B7-H3+ tumor cells)
[5] = target: human B7-H3 on B7-H3+ cells (human) (UniProt Q5ZPR3); test: FACS, NCI-H520 cells (B7-H3+ tumor cells)
[6] = target: human B7-H3 on B7-H3+ cells (human) (UniProt Q5ZPR3); test: FACS, NCI-H520 cells (B7-H3+ tumor cells) [Continued) D]
[7] = target: human B7-H3 on B7-H3+ cells (human) (UniProt Q5ZPR3); test: FACS, human dermal fibroblasts (B7-H3+ normal cells)
[8] = target: human B7-H3 on B7-H3+ cells (human) (UniProt Q5ZPR3); test: FACS, human prostate smooth muscle cells (B7-H3+ normal cells)
[9] = target: human B7-H3 on B7-H3+ cells (human) (UniProt Q5ZPR3); test: FACS, NCI-H520 cells (B7-H3+ tumor cells) [Continued) C]
[10] = target: human B7-H3 on B7-H3+ cells (human) (UniProt Q5ZPR3); test: FACS, A549 cells (B7-H3+ tumor cells)
[11] = target: human B7-H3 on B7-H3+ cells (human) (UniProt Q5ZPR3); test: FACS, MCF-7 cells (B7-H3+ tumor cells)

Sequence of human B7-H3 on B7-H3+ cells (human) (Q5ZPR3 29-534): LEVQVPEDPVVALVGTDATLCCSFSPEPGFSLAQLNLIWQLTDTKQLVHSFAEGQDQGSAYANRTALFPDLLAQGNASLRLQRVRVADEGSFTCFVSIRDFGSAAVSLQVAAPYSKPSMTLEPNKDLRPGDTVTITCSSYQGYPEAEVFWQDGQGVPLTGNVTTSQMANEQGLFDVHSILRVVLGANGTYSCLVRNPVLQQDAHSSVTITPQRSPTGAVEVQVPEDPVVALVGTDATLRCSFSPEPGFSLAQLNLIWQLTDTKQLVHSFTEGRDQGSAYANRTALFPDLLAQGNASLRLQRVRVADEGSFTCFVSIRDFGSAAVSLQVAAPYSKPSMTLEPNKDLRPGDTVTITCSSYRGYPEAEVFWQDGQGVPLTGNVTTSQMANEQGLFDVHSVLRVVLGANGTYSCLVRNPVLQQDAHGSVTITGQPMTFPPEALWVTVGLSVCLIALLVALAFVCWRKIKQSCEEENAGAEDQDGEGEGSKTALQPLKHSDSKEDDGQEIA

Binder	EC50 (read off the curve) [1] [µg/mL]	EC50 (read off the curve) [2] [µg/mL]	EC50 (read off the curve) [3] [µg/mL]	EC50 (read off the curve) [4] [µg/mL]	EC50 (read off the curve) [5] [µg/mL]	EC50 (read off the curve) [6] [µg/mL]	EC50 (read off the curve) [7] [µg/mL]	EC50 (read off the curve) [8] [µg/mL]	EC50 (read off the curve) [9] [µg/mL]	EC50 (read off the curve) [10] [µg/mL]	EC50 (read off the curve) [11] [µg/mL]
10D7 (antibody, human IgG1, kappa, V domains shown) VH: QVQLVQSGPGLVKPSETLSLTCTVSGGSISRSSYYWGWIRQPPGKGLEWIGNIFYAGSTYYNPSLKSRVTISVDTSKNQFSLKLSSVTAADTAVYYCARRITGTTGWFDPWGQGTLVTVSS VL: DIQLTQSPSSLSASVGDRVTITCRASQGIRNDLGWYQQKPGKAPKLLIYAASTLQSGVPSRFSGSGSGTDFTLTISSLQPEDFATYYCLQDYNYPRTFGQGTKVEIKR	0.4	0.06	0.05	0.7	0.3	0.03					
Enoblituzumab (antibody, human IgG1, kappa, V domains shown) VH: EVQLVESGGGLVQPGGSLRLSCAASGFTFSSFGMHWVRQAPGKGLEWVAYISSDSSAIYYADTVKGRFTISRDNAKNSLYLQMNSLRDEDTAVYYCGRGRENIYYGSRLDYWGQGTTVTVSS VL: DIQLTQSPSFLSASVGDRVTITCKASQNVDTNVAWYQQKPGKAPKALIYSASYRYSGVPSRFSGSGSGTDFTLTISSLQPEDFATYYCQQYNNYPFTFGQGTKLEIKR		0.3			0.3		0.2	0.1			
6B5-Mut (antibody, human IgG1, kappa) heavy: QVQLVESGPGLVKPSQTLSLTCTVSDGSISSGGYYWSWIRQHPGKGLEWIGYIYYSGGTYYSPSLKSRVTISVDTSKNQFSLKLTSVTAADTAVYYCARRAGYSSSFDSWGQGILVTVSSASTKGPSVFPLAPSSKSTSGGTAALGCLVKDYFPEPVTVSWNSGALTSGVHTFPAVLQSSGLYSLSSVVTVPSSSLGTQTYICNVNHKPSNTKVDKRVEPKSCDKTHTCPPCPAPELVGGPSVFLLPPKPKDTLMISRTPEVTCVVVDVSHEDPEVKFNWYVDGVEVHNAKTKPPEEQYNSTLRVVSVLTVLHQDWLNGKEYKCKVSNKALPAPIEKTISKAKGQPREPQVYTLPPSREEMTKNQVSLTCLVKGFYPSDIAVEWESNGQPENNYKTTPLVLDSDGSFFLYSKLTVDKSRWQQGNVFSCSVMHEALHNHYTQKSLSLSPGK light: EIVLTQSPLSLPVTPGEPASISCRSSQSLLYSNGYTYLDWYLQKPGQSPQFLIYLGFNRASGVPDRFSGSGSGTDFTLKISRVEAEDVGVYYCMQGLQTPYTFGQGTKLEIKRTVAAPSVFIFPPSDEQLKSGTASVVCLLNNFYPREAKVQWKVDNALQSGNSQESVTEQDSKDSTYSLSSTLTLSKADYEKHKVYACEVTHQGLSSPVTKSFNRGEC			0.4						0.2		
6B5 (antibody, human IgG1, kappa, V domains shown) VH: QVQLVESGPGLVKPSQTLSLTCTVSDGSISSGGYYWSWIRQHPGKGLEWIGYIYYSGGTYYSPSLKSRVTISVDTSKNQFSLKLTSVTAADTAVYYCARRAGYSSSFDSWGQGILVTVSS VL: EIVLTQSPLSLPVTPGEPASISCRSSQSLLYSNGYTYLDWYLQKPGQSPQFLIYLGFNRASGVPDRFSGSGSGTDFTLKISRVEAEDVGVYYCMQGLQTPYTFGQGTKLEIKR	0.6	1	0.4	0.7	0.3		0.4	0.3	0.1	2	0.4
10D7-Mut (antibody, human IgG1, kappa) heavy: QVQLVQSGPGLVKPSETLSLTCTVSGGSISRSSYYWGWIRQPPGKGLEWIGNIFYAGSTYYNPSLKSRVTISVDTSKNQFSLKLSSVTAADTAVYYCARRITGTTGWFDPWGQGTLVTVSSASTKGPSVFPLAPSSKSTSGGTAALGCLVKDYFPEPVTVSWNSGALTSGVHTFPAVLQSSGLYSLSSVVTVPSSSLGTQTYICNVNHKPSNTKVDKRVEPKSCDKTHTCPPCPAPELVGGPSVFLLPPKPKDTLMISRTPEVTCVVVDVSHEDPEVKFNWYVDGVEVHNAKTKPPEEQYNSTLRVVSVLTVLHQDWLNGKEYKCKVSNKALPAPIEKTISKAKGQPREPQVYTLPPSREEMTKNQVSLTCLVKGFYPSDIAVEWESNGQPENNYKTTPLVLDSDGSFFLYSKLTVDKSRWQQGNVFSCSVMHEALHNHYTQKSLSLSPGK light: DIQLTQSPSSLSASVGDRVTITCRASQGIRNDLGWYQQKPGKAPKLLIYAASTLQSGVPSRFSGSGSGTDFTLTISSLQPEDFATYYCLQDYNYPRTFGQGTKVEIKRTVAAPSVFIFPPSDEQLKSGTASVVCLLNNFYPREAKVQWKVDNALQSGNSQESVTEQDSKDSTYSLSSTLTLSKADYEKHKVYACEVTHQGLSSPVTKSFNRGEC			0.05			0.03					
